# Test results reported in publication PMC5684232.
# Values joined by “and” are separate entries in the source; they are usually repeats but may differ in a detail not shown here. Identical values can stand only once.
# Experiments:
# [1] = target: human proteasome α7 subunit, wild type (self-assembled homo-tetradecamer) (human) (UniProt P25788); experiment: high-speed atomic force microscopy (HS-AFM); α7 alone adsorbed on APTES-mica; 20 mM Tris-HCl (pH 8.0), 150 mM NaCl; tapping mode
# [2] = target: human proteasome α7 subunit, wild type (self-assembled homo-tetradecamer) (human) (UniProt P25788); experiment: high-speed atomic force microscopy (HS-AFM); α7 alone adsorbed on bare mica; 20 mM Tris-HCl (pH 8.0), 150 mM NaCl; tapping mode
# [3] = target: human proteasome α7 subunit, wild type (self-assembled homo-tetradecamer) (human) (UniProt P25788); experiment: high-speed atomic force microscopy (HS-AFM); α7 adsorbed on APTES-mica, α6 added to the observation buffer to 1 μM; 20 mM Tris-HCl (pH 8.0), 150 mM NaCl; more than 20 min after the addition of α6; 10 fps, at most 1000 frames (100 s)
Substance,percent of oligomers seen as double rings [1] [%],stoichiometry N [1],percent of oligomers seen as double rings [2] [%],dwell time of the bound state [3] [s]
"human proteasome α7 subunit, wild type (self-assembled homo-tetradecamer) (from UniProt P25788 1-255) (natural protein)",21,14 and 7,67,
"human proteasome α6 subunit, short isoform (from UniProt P25786 1-263) (natural protein)",,,,> 100
